Among the data in US20220195407, “OPTIMIZATION OF ENGINEERED MEGANUCLEASES FOR RECOGNITION SEQUENCES” (Precision BioSciences, Inc., published 2022) are activity values, retold here.

Assay in all cases: cell_activity; CHO iGFFP reporter
One data set has as its target T1, LOX 3-4m.2330 (artificial (I-CreI derived)).
T1 chain: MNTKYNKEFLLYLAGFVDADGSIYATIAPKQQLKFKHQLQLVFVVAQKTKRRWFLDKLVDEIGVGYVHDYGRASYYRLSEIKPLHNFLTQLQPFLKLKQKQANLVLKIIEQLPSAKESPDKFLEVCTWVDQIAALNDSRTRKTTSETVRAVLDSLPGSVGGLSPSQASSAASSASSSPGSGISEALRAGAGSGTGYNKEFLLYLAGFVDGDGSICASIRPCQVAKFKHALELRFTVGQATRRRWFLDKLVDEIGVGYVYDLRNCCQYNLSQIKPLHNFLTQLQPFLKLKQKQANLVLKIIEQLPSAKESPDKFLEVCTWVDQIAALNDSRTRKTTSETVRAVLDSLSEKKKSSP
An excerpt: (§1) A CHO cell reporter system (see WO/2012/167192, FIG. 3) was used to determine whether the engineered meganucleases generated in these studies could recognize and cleave the modified LOX 3-4 recognition sequences in Table 87. To perform the assay, a pair of CHO cell reporter lines were produced, which carried a non-functional Green Fluorescent Protein (GFP) gene expression cassette integrated into the genome of the cell. The GFP gene in each cell line was interrupted by a pair of recognition sequences such that intracellular cleavage of either recognition sequence by a meganuclease would stimulate a homologous recombination event resulting in a functional GFP gene. In both cell lines, one of the recognition sequences was derived from the LOX 3-4 recognition sequence (i.e., those sequences disclosed in Table 87), and the second recognition sequence was specifically recognized by a control meganuclease called “CHO 23/24.” CHO reporter cells comprising a recognition sequence derived from the LOX 3-4 recognition sequence and the CHO 23/24 recognition sequence are referred to herein as “test cells.”
(§2) Novel engineered meganucleases derived from the LOX 3-4x.109 meganuclease were prepared by making amino acid substitutions at one or more positions in the first subunit and one or more positions in the second subunit. These engineered meganucleases were then evaluated for cleavage of the LOX 3-4 recognition sequence modified to have an ATAT center sequence (SEQ ID NO: 200) in the CHO reporter assay according to Example 1.

Another data set addresses T2, LOX 3-4m.2248 (artificial (I-CreI derived)).
T2 chain: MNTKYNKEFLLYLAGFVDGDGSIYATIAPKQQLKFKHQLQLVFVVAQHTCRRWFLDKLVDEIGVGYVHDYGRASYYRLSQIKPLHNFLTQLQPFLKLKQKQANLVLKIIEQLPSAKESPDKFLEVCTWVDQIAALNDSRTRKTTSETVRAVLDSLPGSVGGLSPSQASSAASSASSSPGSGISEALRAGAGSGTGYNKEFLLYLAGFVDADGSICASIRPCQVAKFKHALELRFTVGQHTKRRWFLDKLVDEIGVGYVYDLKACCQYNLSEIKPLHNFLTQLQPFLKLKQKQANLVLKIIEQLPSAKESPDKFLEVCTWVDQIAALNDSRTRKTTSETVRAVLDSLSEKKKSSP
From the text: as §1, §2

Another data set has as its target T3, LOX 3-4m.2329 (artificial (I-CreI derived)).
T3 chain: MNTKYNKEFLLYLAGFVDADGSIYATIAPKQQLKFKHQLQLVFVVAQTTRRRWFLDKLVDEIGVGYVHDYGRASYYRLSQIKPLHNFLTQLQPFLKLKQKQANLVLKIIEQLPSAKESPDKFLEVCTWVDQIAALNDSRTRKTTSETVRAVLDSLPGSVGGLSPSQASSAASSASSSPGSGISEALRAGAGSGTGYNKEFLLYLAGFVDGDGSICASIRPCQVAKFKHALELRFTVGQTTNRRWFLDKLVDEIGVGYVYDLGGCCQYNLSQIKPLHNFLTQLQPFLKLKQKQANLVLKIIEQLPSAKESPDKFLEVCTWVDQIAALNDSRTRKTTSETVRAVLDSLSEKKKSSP
From the text: as §1, §2

Another data set addresses T4, LOX 3-4m.2313 (artificial (I-CreI derived)).
T4 chain: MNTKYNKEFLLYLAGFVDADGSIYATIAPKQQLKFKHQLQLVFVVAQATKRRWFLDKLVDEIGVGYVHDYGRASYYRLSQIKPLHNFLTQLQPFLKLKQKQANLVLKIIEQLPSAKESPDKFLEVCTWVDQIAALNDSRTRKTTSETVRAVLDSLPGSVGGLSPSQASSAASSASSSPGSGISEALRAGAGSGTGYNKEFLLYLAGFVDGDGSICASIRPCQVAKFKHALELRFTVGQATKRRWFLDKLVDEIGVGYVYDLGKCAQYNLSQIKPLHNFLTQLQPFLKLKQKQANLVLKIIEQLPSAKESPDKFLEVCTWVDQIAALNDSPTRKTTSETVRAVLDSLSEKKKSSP
From the text: as §1, §2

The next data set deals with T5, LOX 3-4m.1854 (artificial (I-CreI derived)).
T5 chain: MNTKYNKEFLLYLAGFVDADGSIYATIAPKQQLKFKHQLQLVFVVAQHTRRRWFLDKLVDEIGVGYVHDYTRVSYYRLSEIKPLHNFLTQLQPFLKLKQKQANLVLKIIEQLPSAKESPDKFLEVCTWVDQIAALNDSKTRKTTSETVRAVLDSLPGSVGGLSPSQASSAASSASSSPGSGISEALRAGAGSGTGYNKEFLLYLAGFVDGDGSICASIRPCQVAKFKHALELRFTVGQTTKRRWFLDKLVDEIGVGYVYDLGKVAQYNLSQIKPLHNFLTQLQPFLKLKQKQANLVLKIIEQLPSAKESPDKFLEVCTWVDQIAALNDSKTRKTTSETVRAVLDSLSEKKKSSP
From the text: as §1
(§3) Novel engineered meganucleases derived from the LOX 3-4x.109 meganuclease were prepared by making amino acid substitutions at one or more positions in the first subunit and one or more positions in the second subunit. These engineered meganucleases were then evaluated for cleavage of the LOX 3-4 recognition sequence modified to have a GCAA center sequence (SEQ ID NO: 267) in the CHO reporter assay according to Example 1.

Another data set concerns the target T6, LOX 3-4m.1789 (artificial (I-CreI derived)).
T6 chain: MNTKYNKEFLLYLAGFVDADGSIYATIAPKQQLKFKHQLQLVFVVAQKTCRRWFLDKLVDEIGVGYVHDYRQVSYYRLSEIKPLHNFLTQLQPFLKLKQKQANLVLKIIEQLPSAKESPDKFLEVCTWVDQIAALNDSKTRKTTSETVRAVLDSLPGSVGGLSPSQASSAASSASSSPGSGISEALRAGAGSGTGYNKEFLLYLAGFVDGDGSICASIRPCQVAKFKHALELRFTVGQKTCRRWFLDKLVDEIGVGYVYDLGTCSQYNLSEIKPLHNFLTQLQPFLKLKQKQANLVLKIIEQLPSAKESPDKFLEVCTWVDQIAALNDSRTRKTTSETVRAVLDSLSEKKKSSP
From the text: as §1, §3

Another data set concerns the target T7, LOX 3-4m.1875 (artificial (I-CreI derived)).
T7 chain: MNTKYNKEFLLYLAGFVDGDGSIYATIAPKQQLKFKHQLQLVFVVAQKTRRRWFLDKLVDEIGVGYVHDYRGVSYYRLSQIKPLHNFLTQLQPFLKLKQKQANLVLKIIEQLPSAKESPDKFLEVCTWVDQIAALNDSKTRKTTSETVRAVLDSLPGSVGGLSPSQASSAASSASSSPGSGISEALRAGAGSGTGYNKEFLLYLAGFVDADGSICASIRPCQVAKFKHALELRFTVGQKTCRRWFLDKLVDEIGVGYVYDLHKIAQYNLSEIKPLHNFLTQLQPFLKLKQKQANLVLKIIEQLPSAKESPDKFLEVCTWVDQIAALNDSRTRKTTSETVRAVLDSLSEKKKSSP
From the text: as §1, §3

The target of another data set is T8, LOX 3-4m.1868 (artificial (I-CreI derived)).
T8 chain: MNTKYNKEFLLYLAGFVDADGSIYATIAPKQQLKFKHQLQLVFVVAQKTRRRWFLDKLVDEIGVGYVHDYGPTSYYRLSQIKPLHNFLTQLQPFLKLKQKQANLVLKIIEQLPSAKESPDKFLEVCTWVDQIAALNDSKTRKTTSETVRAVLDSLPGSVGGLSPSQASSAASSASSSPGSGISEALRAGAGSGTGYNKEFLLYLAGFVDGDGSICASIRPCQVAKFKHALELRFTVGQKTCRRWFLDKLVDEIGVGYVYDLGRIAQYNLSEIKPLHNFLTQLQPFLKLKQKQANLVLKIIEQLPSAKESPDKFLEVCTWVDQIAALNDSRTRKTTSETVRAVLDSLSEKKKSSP
From the text: as §1, §3

The next data set deals with T9, LOX 3-4m.1500 (artificial (I-CreI derived)).
T9 chain: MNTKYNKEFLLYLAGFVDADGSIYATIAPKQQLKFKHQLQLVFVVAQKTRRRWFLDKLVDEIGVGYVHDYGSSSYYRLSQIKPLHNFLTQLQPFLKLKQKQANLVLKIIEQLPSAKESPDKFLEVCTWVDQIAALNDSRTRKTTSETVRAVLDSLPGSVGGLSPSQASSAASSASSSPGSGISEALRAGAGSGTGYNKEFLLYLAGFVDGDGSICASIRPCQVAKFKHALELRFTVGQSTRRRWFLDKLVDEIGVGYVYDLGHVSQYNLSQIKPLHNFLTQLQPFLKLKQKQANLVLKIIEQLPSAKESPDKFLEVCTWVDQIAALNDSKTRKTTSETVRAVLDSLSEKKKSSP
From the text: as §1
(§4) Novel engineered meganucleases derived from the LOX 3-4x.109 meganuclease were prepared by making amino acid substitutions at one or more positions in the first subunit and one or more positions in the second subunit. These engineered meganucleases were then evaluated for cleavage of the LOX 3-4 recognition sequence modified to have an ATGA center sequence (SEQ ID NO: 220) in the CHO reporter assay according to Example 1.

The next data set concerns the target T10, LOX 3-4m.1486 (artificial (I-CreI derived)).
T10 chain: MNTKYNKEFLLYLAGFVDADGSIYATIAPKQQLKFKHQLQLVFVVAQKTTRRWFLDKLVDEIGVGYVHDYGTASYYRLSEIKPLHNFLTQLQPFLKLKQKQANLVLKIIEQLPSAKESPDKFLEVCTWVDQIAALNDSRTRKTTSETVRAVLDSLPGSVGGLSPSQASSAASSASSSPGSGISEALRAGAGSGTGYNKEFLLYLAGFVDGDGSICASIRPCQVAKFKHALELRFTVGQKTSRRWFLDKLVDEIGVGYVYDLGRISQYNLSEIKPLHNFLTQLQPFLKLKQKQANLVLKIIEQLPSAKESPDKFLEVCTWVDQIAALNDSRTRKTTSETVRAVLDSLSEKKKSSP
From the text: as §1, §4

The target in the next data set is T11, LOX 3-4m.1506 (artificial (I-CreI derived)).
T11 chain: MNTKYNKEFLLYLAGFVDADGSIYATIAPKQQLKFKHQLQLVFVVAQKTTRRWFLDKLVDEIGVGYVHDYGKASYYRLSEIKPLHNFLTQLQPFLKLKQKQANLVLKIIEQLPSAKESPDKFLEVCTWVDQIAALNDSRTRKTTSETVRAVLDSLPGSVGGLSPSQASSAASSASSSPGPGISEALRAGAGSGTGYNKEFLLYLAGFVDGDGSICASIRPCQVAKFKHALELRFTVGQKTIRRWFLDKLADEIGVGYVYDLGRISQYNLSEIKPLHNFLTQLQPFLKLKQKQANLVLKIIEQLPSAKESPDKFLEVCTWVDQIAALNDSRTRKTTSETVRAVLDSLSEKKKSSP
From the text: as §1, §4

The target of another data set is T12, LOX 3-4m.1421 (artificial (I-CreI derived)).
T12 chain: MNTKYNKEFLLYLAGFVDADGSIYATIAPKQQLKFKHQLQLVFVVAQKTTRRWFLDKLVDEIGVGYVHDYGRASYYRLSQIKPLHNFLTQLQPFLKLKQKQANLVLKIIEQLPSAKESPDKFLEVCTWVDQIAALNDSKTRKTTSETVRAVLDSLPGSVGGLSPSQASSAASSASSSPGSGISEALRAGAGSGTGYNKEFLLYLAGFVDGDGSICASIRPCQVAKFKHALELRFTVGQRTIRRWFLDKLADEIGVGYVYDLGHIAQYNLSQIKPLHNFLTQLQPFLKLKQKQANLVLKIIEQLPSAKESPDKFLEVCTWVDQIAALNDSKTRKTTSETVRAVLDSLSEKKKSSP
From the text: as §1, §4

B1: LOX 3-4 ATAT (dsDNA)
DNA 1: GTATAGCATATATTATACGAAG
DNA 2: CTTCGTATAATATATGCTATAC
As to B1, the activity with LOX 3-4m.2330 turned out to be 13.9 % GFP; with LOX 3-4m.2248, 13.8 % GFP; in the data set with LOX 3-4m.2329, 14.9 % GFP; in the data set with LOX 3-4m.2313, 13.1 % GFP.

B2: LOX 3-4 GCAA (dsDNA)
DNA 1: GTATAGCATGCAATATACGAAG
DNA 2: CTTCGTATATTGCATGCTATAC
Consider B2, for which the activity with LOX 3-4m.1854 came out at 7.67 % GFP; with LOX 3-4m.1789, 8.9 % GFP; with LOX 3-4m.1875, 8.14 % GFP; in the data set with LOX 3-4m.1868, 7.56 % GFP.

B3: LOX 3-4 ATGA (dsDNA)
DNA 1: GTATAGCATATGATATACGAAG
DNA 2: CTTCGTATATCATATGCTATAC
On to B3, for which the activity with LOX 3-4m.1500 was 3.6 % GFP; in the data set with LOX 3-4m.1486, 9.23 % GFP; with LOX 3-4m.1506 it was 8.2 % GFP; in the data set with LOX 3-4m.1421 it was 8.37 % GFP.
